Assays:
[1] = molecular target: Human statherin protein (human) (UniProt P02808); assay: indirect ELISA; coat: sample 3, 12.5 uL saliva/100 uL in urine, diluted 1:40; mean minus saliva-free urine blank
[2] = molecular target: Human statherin protein (human) (UniProt P02808); assay: indirect ELISA; coat: sample 4, 6.25 uL saliva/100 uL in urine, diluted 1:40; replicate R3
[3] = molecular target: Human statherin protein (human) (UniProt P02808); assay: indirect ELISA; coat: B-SP-U (about 500 uL spit in 30 mL urine, individual B) diluted 1:40; replicate R2
[4] = molecular target: Human statherin protein (human) (UniProt P02808); assay: indirect ELISA; coat: sample 2, 25 uL saliva/100 uL in urine, diluted 1:40; replicate R2
[5] = molecular target: Human statherin protein (human) (UniProt P02808); assay: indirect ELISA; coat: A-SP-U (about 500 uL spit in 30 mL urine, individual A) diluted 1:40; replicate R3
[6] = molecular target: Human statherin protein (human) (UniProt P02808); assay: indirect ELISA; coat: sample 2, 25 uL saliva/100 uL in urine, diluted 1:40; replicate R1
[7] = molecular target: Human statherin protein (human) (UniProt P02808); assay: indirect ELISA; coat: sample 1, 50 uL saliva/100 uL in urine, diluted 1:40; replicate R1
[8] = molecular target: Human statherin protein (human) (UniProt P02808); assay: indirect ELISA; coat: sample 7, 0.78125 uL saliva/100 uL in urine, diluted 1:40; replicate R3
[9] = molecular target: Human statherin protein (human) (UniProt P02808); assay: indirect ELISA; coat: A-SP-U (about 500 uL spit in 30 mL urine, individual A) diluted 1:40; mean of triplicate
[10] = molecular target: Human statherin protein (human) (UniProt P02808); assay: indirect ELISA; coat: B-Saliva (pure saliva of individual B) diluted 1:40; replicate R2
[11] = molecular target: Human statherin protein (human) (UniProt P02808); assay: indirect ELISA; coat: sample 6, 1.5625 uL saliva/100 uL in urine, diluted 1:40; replicate R3
[12] = molecular target: Human statherin protein (human) (UniProt P02808); assay: indirect ELISA; coat: sample 7, 0.78125 uL saliva/100 uL in urine, diluted 1:40; mean of triplicate
[13] = molecular target: Human statherin protein (human) (UniProt P02808); assay: indirect ELISA; coat: sample 4, 6.25 uL saliva/100 uL in urine, diluted 1:40; mean minus saliva-free urine blank
[14] = molecular target: Human statherin protein (human) (UniProt P02808); assay: indirect ELISA; coat: sample 1, 50 uL saliva/100 uL in urine, diluted 1:40; mean minus saliva-free urine blank
[15] = molecular target: Human statherin protein (human) (UniProt P02808); assay: indirect ELISA; coat: sample 5, 3.125 uL saliva/100 uL in urine, diluted 1:40; replicate R1
[16] = molecular target: Human statherin protein (human) (UniProt P02808); assay: indirect ELISA; coat: sample 1, 50 uL saliva/100 uL in urine, diluted 1:40; mean of triplicate
[17] = molecular target: Human statherin protein (human) (UniProt P02808); assay: indirect ELISA; coat: sample 6, 1.5625 uL saliva/100 uL in urine, diluted 1:40; replicate R1
[18] = molecular target: Human statherin protein (human) (UniProt P02808); assay: indirect ELISA; coat: sample 2, 25 uL saliva/100 uL in urine, diluted 1:40; replicate R3
[19] = molecular target: Human statherin protein (human) (UniProt P02808); assay: indirect ELISA; coat: A-SB-U (buccal swab stirred in 30 mL urine, individual A) diluted 1:40; replicate R2
[20] = molecular target: Human statherin protein (human) (UniProt P02808); assay: indirect ELISA; coat: sample 4, 6.25 uL saliva/100 uL in urine, diluted 1:40; replicate R2
[21] = molecular target: Human statherin protein (human) (UniProt P02808); assay: indirect ELISA; coat: A-SB-U (buccal swab stirred in 30 mL urine, individual A) diluted 1:40; replicate R3
[22] = molecular target: Human statherin protein (human) (UniProt P02808); assay: indirect ELISA; coat: sample 4, 6.25 uL saliva/100 uL in urine, diluted 1:40; replicate R1
[23] = molecular target: Human statherin protein (human) (UniProt P02808); assay: indirect ELISA; coat: sample 3, 12.5 uL saliva/100 uL in urine, diluted 1:40; mean of triplicate
[24] = molecular target: Human statherin protein (human) (UniProt P02808); assay: indirect ELISA; coat: sample 5, 3.125 uL saliva/100 uL in urine, diluted 1:40; mean of triplicate
[25] = molecular target: Human statherin protein (human) (UniProt P02808); assay: indirect ELISA; coat: B-SB-U (buccal swab stirred in 30 mL urine, individual B) diluted 1:40; replicate R1
[26] = molecular target: Human statherin protein (human) (UniProt P02808); assay: indirect ELISA; coat: A-Saliva (pure saliva of individual A) diluted 1:40; mean of triplicate
[27] = molecular target: Human statherin protein (human) (UniProt P02808); assay: indirect ELISA; coat: sample 3, 12.5 uL saliva/100 uL in urine, diluted 1:40; replicate R2
[28] = molecular target: Human statherin protein (human) (UniProt P02808); assay: indirect ELISA; coat: sample 6, 1.5625 uL saliva/100 uL in urine, diluted 1:40; mean of triplicate
[29] = molecular target: Human statherin protein (human) (UniProt P02808); assay: indirect ELISA; coat: sample 1, 50 uL saliva/100 uL in urine, diluted 1:40; replicate R3
[30] = molecular target: Human statherin protein (human) (UniProt P02808); assay: indirect ELISA; coat: B-Saliva (pure saliva of individual B) diluted 1:40; replicate R1
[31] = molecular target: Human statherin protein (human) (UniProt P02808); assay: indirect ELISA; coat: sample 4, 6.25 uL saliva/100 uL in urine, diluted 1:40; mean of triplicate
[32] = molecular target: Human statherin protein (human) (UniProt P02808); assay: indirect ELISA; coat: sample 7, 0.78125 uL saliva/100 uL in urine, diluted 1:40; replicate R2
[33] = molecular target: Human statherin protein (human) (UniProt P02808); assay: indirect ELISA; coat: sample 5, 3.125 uL saliva/100 uL in urine, diluted 1:40; replicate R2
[34] = molecular target: Human statherin protein (human) (UniProt P02808); assay: indirect ELISA; coat: A-Saliva (pure saliva of individual A) diluted 1:40; replicate R3
[35] = molecular target: Human statherin protein (human) (UniProt P02808); assay: indirect ELISA; coat: B-SP-U (about 500 uL spit in 30 mL urine, individual B) diluted 1:40; replicate R3
[36] = molecular target: Human statherin protein (human) (UniProt P02808); assay: indirect ELISA; coat: A-SB-U (buccal swab stirred in 30 mL urine, individual A) diluted 1:40; replicate R1
[37] = molecular target: Human statherin protein (human) (UniProt P02808); assay: indirect ELISA; coat: A-SP-U (about 500 uL spit in 30 mL urine, individual A) diluted 1:40; replicate R1
[38] = molecular target: Human statherin protein (human) (UniProt P02808); assay: indirect ELISA; coat: B-Saliva (pure saliva of individual B) diluted 1:40; mean of triplicate
[39] = molecular target: Human statherin protein (human) (UniProt P02808); assay: indirect ELISA; coat: A-Saliva (pure saliva of individual A) diluted 1:40; replicate R2
[40] = molecular target: Human statherin protein (human) (UniProt P02808); assay: indirect ELISA; coat: B-SB-U (buccal swab stirred in 30 mL urine, individual B) diluted 1:40; replicate R2
[41] = molecular target: Human statherin protein (human) (UniProt P02808); assay: indirect ELISA; coat: B-Saliva (pure saliva of individual B) diluted 1:40; replicate R3
[42] = molecular target: Human statherin protein (human) (UniProt P02808); assay: indirect ELISA; coat: sample 5, 3.125 uL saliva/100 uL in urine, diluted 1:40; mean minus saliva-free urine blank
[43] = molecular target: Human statherin protein (human) (UniProt P02808); assay: indirect ELISA; coat: B-SP-U (about 500 uL spit in 30 mL urine, individual B) diluted 1:40; replicate R1
[44] = molecular target: Human statherin protein (human) (UniProt P02808); assay: indirect ELISA; coat: sample 7, 0.78125 uL saliva/100 uL in urine, diluted 1:40; mean minus saliva-free urine blank
[45] = molecular target: Human statherin protein (human) (UniProt P02808); assay: indirect ELISA; coat: sample 2, 25 uL saliva/100 uL in urine, diluted 1:40; mean minus saliva-free urine blank
[46] = molecular target: Human statherin protein (human) (UniProt P02808); assay: indirect ELISA; coat: A-Saliva (pure saliva of individual A) diluted 1:40; replicate R1
[47] = molecular target: Human statherin protein (human) (UniProt P02808); assay: indirect ELISA; coat: sample 7, 0.78125 uL saliva/100 uL in urine, diluted 1:40; replicate R1
[48] = molecular target: Human statherin protein (human) (UniProt P02808); assay: indirect ELISA; coat: B-SB-U (buccal swab stirred in 30 mL urine, individual B) diluted 1:40; replicate R3
[49] = molecular target: Human statherin protein (human) (UniProt P02808); assay: indirect ELISA; coat: sample 1, 50 uL saliva/100 uL in urine, diluted 1:40; replicate R2
[50] = molecular target: Human statherin protein (human) (UniProt P02808); assay: indirect ELISA; coat: B-SB-U (buccal swab stirred in 30 mL urine, individual B) diluted 1:40; mean of triplicate
[51] = molecular target: Human statherin protein (human) (UniProt P02808); assay: indirect ELISA; coat: sample 3, 12.5 uL saliva/100 uL in urine, diluted 1:40; replicate R3
[52] = molecular target: Human statherin protein (human) (UniProt P02808); assay: indirect ELISA; coat: A-SP-U (about 500 uL spit in 30 mL urine, individual A) diluted 1:40; replicate R2
[53] = molecular target: Human statherin protein (human) (UniProt P02808); assay: indirect ELISA; coat: sample 3, 12.5 uL saliva/100 uL in urine, diluted 1:40; replicate R1
[54] = molecular target: Human statherin protein (human) (UniProt P02808); assay: indirect ELISA; coat: sample 6, 1.5625 uL saliva/100 uL in urine, diluted 1:40; mean minus saliva-free urine blank
[55] = molecular target: Human statherin protein (human) (UniProt P02808); assay: indirect ELISA; coat: B-SP-U (about 500 uL spit in 30 mL urine, individual B) diluted 1:40; mean of triplicate
[56] = molecular target: Human statherin protein (human) (UniProt P02808); assay: indirect ELISA; coat: sample 2, 25 uL saliva/100 uL in urine, diluted 1:40; mean of triplicate
[57] = molecular target: Human statherin protein (human) (UniProt P02808); assay: indirect ELISA; coat: sample 5, 3.125 uL saliva/100 uL in urine, diluted 1:40; replicate R3
[58] = molecular target: Human statherin protein (human) (UniProt P02808); assay: indirect ELISA; coat: A-SB-U (buccal swab stirred in 30 mL urine, individual A) diluted 1:40; mean of triplicate
[59] = molecular target: Human statherin protein (human) (UniProt P02808); assay: indirect ELISA; coat: sample 6, 1.5625 uL saliva/100 uL in urine, diluted 1:40; replicate R2

Sequence of UniProt P02808 (P02808 20-62 limits assumed): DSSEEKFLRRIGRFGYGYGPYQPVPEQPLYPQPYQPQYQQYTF

OD405 Mean - Blank mean [1]: 0.107 OD405
OD405 [2]: 0.131 OD405
OD405 [3]: 0.168 OD405
OD405 [4]: 0.114 OD405
OD405 [5]: 0.236 OD405
OD405 [6]: 0.147 OD405
OD405 [7]: 0.171 OD405
OD405 [8]: 0.057 OD405
OD405 Mean [9]: 0.224 OD405
OD405 [10]: 0.289 OD405
OD405 [11]: 0.075 OD405
OD405 Mean [12]: 0.062 OD405
OD405 Mean - Blank mean [13]: 0.114 OD405
OD405 Mean - Blank mean [14]: 0.125 OD405
OD405 [15]: 0.132 OD405
OD405 Mean [16]: 0.155 OD405
OD405 [17]: 0.091 OD405
OD405 [18]: 0.114 OD405
OD405 [19]: 0.287 OD405
OD405 [20]: 0.14 OD405
OD405 [21]: 0.291 OD405
OD405 [22]: 0.16 OD405
OD405 Mean [23]: 0.137 OD405
OD405 Mean [24]: 0.121 OD405
OD405 [25]: 0.318 OD405
OD405 Mean [26]: 1.22 OD405
OD405 [27]: 0.129 OD405
OD405 Mean [28]: 0.083 OD405
OD405 [29]: 0.144 OD405
OD405 [30]: 0.325 OD405
OD405 Mean [31]: 0.144 OD405
OD405 [32]: 0.06 OD405
OD405 [33]: 0.117 OD405
OD405 [34]: 1.24 OD405
OD405 [35]: 0.165 OD405
OD405 [36]: 0.331 OD405
OD405 [37]: 0.207 OD405
OD405 Mean [38]: 0.336 OD405
OD405 [39]: 1.22 OD405
OD405 [40]: 0.311 OD405
OD405 [41]: 0.394 OD405
OD405 Mean - Blank mean [42]: 0.091 OD405
OD405 [43]: 0.171 OD405
OD405 Mean - Blank mean [44]: 0.032 OD405
OD405 Mean - Blank mean [45]: 0.095 OD405
OD405 [46]: 1.21 OD405
OD405 [47]: 0.069 OD405
OD405 [48]: 0.289 OD405
OD405 [49]: 0.151 OD405
OD405 Mean [50]: 0.306 OD405
OD405 [51]: 0.12 OD405
OD405 [52]: 0.229 OD405
OD405 [53]: 0.161 OD405
OD405 Mean - Blank mean [54]: 0.053 OD405
OD405 Mean [55]: 0.168 OD405
OD405 Mean [56]: 0.125 OD405
OD405 [57]: 0.114 OD405
OD405 Mean [58]: 0.303 OD405
OD405 [59]: 0.083 OD405
Substance: Statherin Antibody (N-16), Santa Cruz Biotechnology, Inc. (Catalog No. sc-28112)

Reference: patent publication US20160145684A1
